These results are taken from the nanobody polyreactivity screen of Harvey et al. (2022).

This series can be described thus: yeast display, Sf9 membrane polyspecificity reagent, FACS + sequencing; frameworks hold sequencing errors. The procedure, abridged: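 Galactose induction of a Saccharomyces cerevisiae BJ5465 synthetic nanobody display library ran 36–48 hours. The cells were then stained for 1 hour at 4 °C with 10% biotinylated, detergent-solubilized Sf9 membrane reagent, pulled down on streptavidin microbeads and FACS-sorted into low and high (top ~1%) gates on expression and reagent-binding fluorescence. Labels for polyreactivity follow the gate of origin.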
Take “QVQLVESVGGLVQAGGSLRLSCAASGRMFAKYAMGWYRQAPGKERELVPISSSVGRTYYADSVKGRFTISRDNAKNTVSLHMHSLKPEDTAVYYCNAKPRWYVPYDYSGQGTQVTVSS”: the “polyreactivity (PSR sort gate)” value is on record as “high polyreactivity”.
Regarding “QVQLVESVGGLVQAGGSLRLSCAASGRPSNRYAMGWYRQAPGKERELVAAISGRGGSTYYADSVKGRFTISRDNAKNTVYLQMNSLKPEDTAVYYCAKQWYVAKISYDYWGQGTQVTVSS”, the “polyreactivity (PSR sort gate)” value is given as “high polyreactivity”.
On to “QVQLVESVGGLVQAGGSLRLSCAASGRRTIRYNAMGWYRQAPGKEREFVASISRSGGSTYYADSVKGRFTISRDNAKNTVYLQMNSLKPEDTAVYYCAAAASHLVAYGWGYEYYYWGQGTQVTVSS”, for which the “polyreactivity (PSR sort gate)” value is given as “high polyreactivity”.
“QVQLVESVGGLVQAGGSLRLSCAASGRTFAPNFMGWYRQAPGKERELVAAITYSSASTYYADSVKGRFTISRDNAKNTVYLQMNSLKPEDTAVYYCAARDRYYFGGMYYWGQGTQVTVSS”: the “polyreactivity (PSR sort gate)” value is recorded as “low polyreactivity”.
Regarding “QVQLVESVGGLVQAGGSLRLSCAASGRTFTGNAMGWYRQAPGKERELVAAISQRGGRTNYADSVKGRFTISRDNAKNTVYLQMNSLKPEDTAVYYCAADQSYPKRLPSFEYWGQGTQVTVSS”, the “polyreactivity (PSR sort gate)” value is listed as “low polyreactivity”.
As for “QVQLVESVGGLVQAGGSLRLSCAASGRTFTTNAMGWYRQAPGKERELVAAITIGDDTYYADSVKGRFTISRDNAKNTVYLQMNSLKPEDTAVYYCAADYKRVPFVTQYVSKDGYWGQGTQVTVSS”, the “polyreactivity (PSR sort gate)” value is “low polyreactivity”.
For the sequence “QVQLVESVGGLVQAGGSLRLSCAASGRTFTYNSMGSYRQAPGKERELVAAITRRGGSTYYADSVKGRFTISRDNAKNTVYLQMNSLKPEDTAVYYCAATGYLRTYDYWGQGTQVTVSS”, the “polyreactivity (PSR sort gate)” value was “high polyreactivity”.
Regarding “QVQLVESVGGLVQAGGSLRLSCAASGRTFVGNTMGWYRQAPGKERELVAAISGSGSRTYYADSVKGRFTISRDNAKNTVYLQMNSLKPEDTGVYYCASQGNYWGQGTQVTVSS”, the “polyreactivity (PSR sort gate)” value is listed as “high polyreactivity”.
With “QVQLVESVGGLVQAGGSLRLSCAASGRTLGGNAMGWYRQAPGKERELVAAITNSASTYADSVKGRFTISRDNAKNTVYLQMNSLKPEDTAVYYCNAPDPSDQHGDYWGQGTQVTVSS”, the “polyreactivity (PSR sort gate)” value is reported as “low polyreactivity”.
As to “QVQLVESVGGLVQAGGSLRLSCAASGSIFTENAMGWYRQAPGKERELVATITITGSTNYADSVKGRFTISRDNAKNTFYLQMNSLKPEDTEVYYCNADLYIAFSASAYDYWGQGTQVTVSS”, the “polyreactivity (PSR sort gate)” value is given as “low polyreactivity”.
In the case of “QVQLVESVGGLVQAGGSLRLSCAASGSIFTWYAMGWYRQAPRKERELVAAITRGGSTYADSVKGRFTISRDNAKNTVYLQMNSLKPEDTAVYYCNAVYGVYDFNYWGQGTQVTVSS”, the “polyreactivity (PSR sort gate)” value is recorded as “low polyreactivity”.
In the case of “QVQLVESVGGLVQAGGSLRLSCAASGSISGYYAMGWYRQAPGKERELVASIRYTGARTYYADSVKGRFTISRDNAKNTVYLQMHSLKPEDTAVYYCAADVNRDRVWGGDYWGQGTQVTVSS”, the “polyreactivity (PSR sort gate)” value is listed as “low polyreactivity”.
Take “QVQLVESVGGLVQAGGSLRLSCAASGSITVANAMGWYSQAPGKESELVAAITDSGDDTYYADSVKGRFTNSRDNAKNTVYLLMNSLKAEDTAVYYCAVEAWSVPPYDYWGQGTQVTVSS”: the “polyreactivity (PSR sort gate)” value is “low polyreactivity”.
Consider “QVQLVESVGGLVQAGGSLRLSCAASGSTFAFYDMGWYRQAPGKERELVAAISQSDGDTYYADSVKGRFTISRDNAKNTVYLQMNSLKPEDTAVYYCAAETAHTPEYERGSDYWGQGTQVTVSS”, for which the “polyreactivity (PSR sort gate)” value was “low polyreactivity”.
In the case of “QVQLVESVGGLVQAGGSLRLSCAASGSTFGYNAMGWYRHAPGKEMELVAAITRSSSRTYYADYVKGRFTISRDNAKNTVYLQMNSLKPEDTAVYYCAKVRYVVGSIFNYSYNYWGQGTQVTVSS”, the “polyreactivity (PSR sort gate)” value was “high polyreactivity”.
With “QVQLVESVGGLVQAGGSLRLSCAASGSTFKGYYMGWYRQAPGKERELVAAIDSGGSTYYADSVKGRFTISRDNAKNTVYLQMNSLNPVDTAVYYCAATGQDTYGLDVVDEYDYWGQGTKVTVSS”, the “polyreactivity (PSR sort gate)” value was “low polyreactivity”.
For the sequence “QVQLVESVGGLVQAGGSLRLSCAASGSTFYIYAMGWYRQAPGKERELVADINNSDSTYYADSVKGRFTISRDNAKITVYLQMYSLKPEDTAVYYCAAYDYYIGAYSYGGSDYDYWGQGTQVTVSS”, the “polyreactivity (PSR sort gate)” value is recorded as “low polyreactivity”.
Consider “QVQLVESVGGLVQAGGSLRLSCAASGSTLDGNPMGWYRQAPGKERELVAAISRSGTSTYYADSVKGRFTISRDNAKNTVYLQMNSLKPEDTAVYYCNKVGYIAFDYWGQGTQVTVSS”, for which the “polyreactivity (PSR sort gate)” value was “low polyreactivity”.
In the case of “QVQLVESVGGLVQAGGSLRLSCAASVRTFYNYSMGWYRQAPGKERELVAGISRRGGSTYYADSVKGRFTISRDNAKNTVYLQMNSLKPEDTAVYYCIEDLVRPGYYRYDYRGQGTQVTVSS” it was “high polyreactivity”; in that of “QVQLVESVGGLVQAGGSLRLSCAASVYAMGWYRPAPGKERELVAAITDSGSTNYADSVKGRFTISRDNAKNTVYLQMNSLKPEDNAVYYCNADPYYATGSWARLPLYQYDYWGPGTQVTVSS”, “low polyreactivity”; in that of “QVQLVESVGGLVQAGGSLRLSCAASYAMAWYRQAPGKERELVATITRTDRTNYADSVKGRFTISRDNAMNTVYFQMNSLKPEDTAVYDCNKVEWSAPGDSRKYGYWGQGTQVTVSS”, “low polyreactivity”.
With “QVQLVESVGGLVQAGGSLRLSCAATGRIFHYNAMGWYRQAPGKERELVAAITSSGGTTYYADSVKGRFTISRDIAKNTVYLQMNTLKPEDTAVYYCNAVTSARVNYRGQGTQVTVSS”, the “polyreactivity (PSR sort gate)” value is listed as “high polyreactivity”.
For “QVQLVESVGGLVQAGGSLRLSCAATGSIFSYYAMGWYRQAPGKERELVAAISVSGGRTYYADSVNGRFTISRDNAKNTVYLQMNSLKPEDTAVYYCATRIRSYYYWGQGTQVTVSS” the value was “high polyreactivity”.
Turning to “QVQLVESVGGLVQAGGSLRLSCAAYGRTFAPNAMLWYRQAPGKESELVAAISWSGTSTYYADSVKGRFTISRDNSKNTVYLQMYSLKPEDTAFYDCAADMEGRVGSPWTYDYWGQGTQVTVSS”, the “polyreactivity (PSR sort gate)” value is on record as “low polyreactivity”.
As to “QVQLVESVGGLVQAGGSLRLSCAGSGRIFRNYAMGWYRQAPGKERELVAAISDSSGSTYYADSVKGRFTISRDNAKNTVYLQMNILKPEHTAVYFCRYYFGSGYYYWGQGTQVTVSS”, the “polyreactivity (PSR sort gate)” value is “high polyreactivity”.
In the case of “QVQLVESVGGLVQAGGSLRLSCASSGITFWYYAMGWYRQAPGKERELVAAISYSGDSTYYADSVKGRFTISRDNAKNTVYLQMNSLKPEDTAVYYCAARTRAGAWTSKYHDYWGQGTQGTVSS” it was “high polyreactivity”; in that of “QVQLVESVGGLVQAGGSLRLSCASSGYIFAYYGMGWYRQAPGNERELVAAISWSGGSTDYADSVKGRFTISRDNAKNTGYLQMNRLKPEDTAVYYCATRKYADRESDYWGQVTQVTVSS”, “high polyreactivity”.
In the case of “QVQLVESVGGLVQAGGSLRLSCPASGFIFSGHTMGWYRQAPGKERELVAAITSGGGRTYYADSVKGRFTISRDNAKNTVYLQMNSLKPEDTAVYYCNTAFVYEYDYWGQGTQVTVSS”, the “polyreactivity (PSR sort gate)” value is “high polyreactivity”.
As for “QVQLVESVGGLVQAGGSLRLSCSASGSTFTGYAMGWYRQARGNEREFVATITKRGGRTYYADSVKGRFTISRDNAKNTVYLQMNSLKPEDSAVYYCARDQGKLFVPYDYWGKGTQVTVSS”, the “polyreactivity (PSR sort gate)” value is given as “high polyreactivity”.
For “QVQLVESVGGLVQAGGSLRLSCSASGTFRRNVKGWYRQAPGKERELVAAIRSGGSTYYADSVKGRFTISRDNAKHTVFLQMNSLKPEDTAVYYCASDRPGHSFYDEWYRYDSWGQGTQVTVSS” the value was “low polyreactivity”.
In the case of “QVQLVESVGGLVQAGGSLRLSGAASGSTFGRYAMGWSRQAPGKEREFVANISWSDGSTNYADSVKGRFTISRDHAKNTVYFQMNSLKPEDTAVYYCATGLGYTAFGKEVYDWHDYWGQGTQVTVSS”, the “polyreactivity (PSR sort gate)” value is given as “low polyreactivity”.
In the case of “QVQLVESVGGLVQAGGSLRLSSDASGRTFYSNAMGWYREAPGKERELVAGMNIGGGSTYYADSVKGRFTISRDNAKNTVYLQMYSLIPEATAVYYCAALRWGAYRHGYWGQGTQVTVSW” it was “high polyreactivity”.
For the sequence “QVQLVESVGGLVQAGGSLRLTCAACGVTFSYNTMGWYRQAPGKERELVAAISRSGGRTYYADSVKGRFTISRDNAKNTVYLQMNSLKPEDTAVYYCARYSVTGFGANSGPEMDYWGHGTQVTVSS”, the “polyreactivity (PSR sort gate)” value is given as “high polyreactivity”.
Take “QVQLVESVGGLVQAGGSLRLTCAASVITQRFNSMGWYRQAPGKEMELVAAISSGTNTYYADSVKGRFAISRDNAKNTVYLQMNSLKPEDTAVYYCADTLGYYTSGRSYQRYDYWGHGTQVTVSS”: the “polyreactivity (PSR sort gate)” value is “low polyreactivity”.
Turning to “QVQLVESVGGLVQAGGSLRLTCAASVSIIRYNAMGWYRQAPGKERELVAAITKGAGSTYYADSVKGRFTISRDNAKNTVYLQMNSLKPEDTAVYYCAAAGGTSRRTIYTAFYYWGQGTQVTVSS”, the “polyreactivity (PSR sort gate)” value is “high polyreactivity”.
For “QVQLVESVGGLVQAGGSLSLSCAASGRIFVWYTMGWYRQAPGKEREFVASINGGGNTNYADSVKGRFTISRDNAKNTVYLQMNSLKPEDTADYYCAREYFGEMDYWGHGTQVTVSS” the value was “low polyreactivity”; for “QVQLVESVGGLVQAGGSLSLSSAASGRTFGNYAMGWYRQAPGKERELVADITRRGGSTSYADSVKGRFTISRDNAKNTVYLQMTSLKTEDTAVYYCNKAAEGSSHYDYWGLGTQVTVSS”, “low polyreactivity”.
Regarding “QVQLVESVGGLVQAGGTLRLSCAATEGTIRSNAMGWYRQAPGKESELVAAISRGGSTYYADSVKGRFTISRDNAKNTVYLQMNSLKPEDTAVYYCNVAYYRSGHDNDYWGQGTQVTVSS”, the “polyreactivity (PSR sort gate)” value is “high polyreactivity”.
For “QVQLVESVGGLVQAGVSLRLSSPATGSTIYFYAMGWYRQEPGKERELVAAISGSGGRKYYADSVKGRFTISRDNAKNTVYLQMNSLKPEDTAVYYCAAEWFPYSEREFLYYYWGQGTQVTVSS” the value was “high polyreactivity”; for “QVQLVESVGGLVQAVGSLRLSCAASGNTFYRYAMGWYIQAPGKERELVAAITWRSTYYADSVKGRFTISRDNAKNTVYLQMNSLKPEDTAVYYCAVSVRPYVIYLYDYWGQGTQVTVSS”, “high polyreactivity”; for “QVQLVESVGGLVQEGGSLRLSCAASGSIRYAMGRYRQAPGKERELDAAISGRGGNTYYADSVKGSFTISRDNAKNTVYLQMNSLKPEDTAVYYCATRGNRVLTGTRYDYWGQGTQITVSS”, “high polyreactivity”.
